In patent US20220025021A1 (BETH ISRAEL DEACONESS MEDICAL CENTER, published 2022):
Residue numbers refer to the chain shown, from its start.

B1: MS-101 (antibody)
VH: not shown
VL: DFVLTQSPHSLSVTPGEPASISCKSSHSLIHGDRNNYLAWYVQKPGRSPQLLIYLASSRASGVPDRFSGSGSDKDFTLKISRVEAEDVGTYYCMQGRESPWTFGQGTKVDIKRTVAAPSVFIFPPSDEQLKSGTASVVCLLNNFYPREAKVQWKVDNALQSGNSQESVTEQDSKDSTYSLSSTLTLSKADYEKHKVYACEVTHQGLSSPVTKSFNRGEC
B2: MS-114 (antibody)
VH: not shown
VL: B1 VL with F2I, H9L
B3: MS-105 (antibody)
VH: not shown
VL: B1 VL with F2I, H9L, P18S
B4: MS-113 (antibody)
VH: not shown
VL: B1 VL with F2I, H9L, D73G, A85T
B5: MS-103 (antibody)
VH: not shown
VL: B1 VL with F2I, H9L, A85T
B6: MS-110 (antibody)
VH: not shown
VL: B1 VL with H9L
B7: MS-109 (antibody)
VH: not shown
VL: B1 VL with H9L, D73G, A85T
B8: MS-106 (antibody)
VH: not shown
VL: B1 VL with F2I, D73G, A85T
B9: MS-108 (antibody)
VH: not shown
VL: B1 VL with F2I, P18S, D73G
B10: MS-107 (antibody)
VH: not shown
VL: B1 VL with F2I
B11: MS-104 (antibody)
VH: not shown
VL: B1 VL with F2I, H9L, P18S, D73G, A85T
B12: MS-102 (antibody)
VH: not shown
VL: B1 VL with P18S, D73G
B13: MS-112 (antibody)
VH: not shown
VL: B1 VL with D73G
B14: MS-111 (antibody)
VH: not shown
VL: B1 VL with H9L, P18S, D73G

Tests used:
Assay in all cases: cell-based or functional assay
[1] = target: HIV-1 pseudovirus SC05.8C11.2344 (envelope glycoprotein) (HIV-1)
[2] = target: HIV-1 pseudovirus Ce1176_A3 (envelope glycoprotein) (HIV-1)
[3] = target: HIV-1 pseudovirus X1193_c1 (envelope glycoprotein) (HIV-1)
[4] = target: HIV-1 pseudovirus AC10.0.29 (envelope glycoprotein) (HIV-1)
[5] = target: HIV-1 pseudovirus 263-8 (envelope glycoprotein) (HIV-1)
[6] = target: HIV-1 pseudovirus 6952.v1.c20 (envelope glycoprotein) (HIV-1)

Binder	neutralization IC50 [1]	neutralization IC80 [1]	neutralization IC50 [2]	neutralization IC80 [2]	neutralization IC50 [3]	neutralization IC80 [3]	neutralization IC50 [4]	neutralization IC80 [4]	neutralization IC50 [5]	neutralization IC80 [5]	neutralization IC50 [6]	neutralization IC80 [6]
B1	0.819 µg/mL	2.69 µg/mL	0.043 µg/mL	1.94 µg/mL	0.098 µg/mL	0.602 µg/mL	0.045 µg/mL	0.221 µg/mL	0.011 µg/mL	0.041 µg/mL	0.254 µg/mL	3.51 µg/mL
B2	0.81 µg/mL	3.86 µg/mL	0.139 µg/mL	7.39 µg/mL	0.124 µg/mL	0.404 µg/mL	0.066 µg/mL	0.313 µg/mL	0.018 µg/mL	0.066 µg/mL	0.146 µg/mL	1.37 µg/mL
B3	0.794 µg/mL	2.73 µg/mL	0.172 µg/mL	3.39 µg/mL	0.067 µg/mL	0.417 µg/mL	0.051 µg/mL	0.394 µg/mL	0.017 µg/mL	0.062 µg/mL	0.706 µg/mL	9.49 µg/mL
B4	0.573 µg/mL	1.94 µg/mL	0.182 µg/mL	6.05 µg/mL	0.098 µg/mL	0.421 µg/mL	0.052 µg/mL	0.245 µg/mL	0.018 µg/mL	0.052 µg/mL	0.351 µg/mL	5.03 µg/mL
B5	0.707 µg/mL	2.44 µg/mL	0.172 µg/mL	3.13 µg/mL	0.112 µg/mL	0.502 µg/mL	0.07 µg/mL	0.334 µg/mL	0.018 µg/mL	0.07 µg/mL	0.485 µg/mL	5.95 µg/mL
B6	0.914 µg/mL	3.1 µg/mL	0.097 µg/mL	2.5 µg/mL	0.106 µg/mL	0.677 µg/mL	0.076 µg/mL	0.285 µg/mL	0.01 µg/mL	0.038 µg/mL	0.195 µg/mL	2.12 µg/mL
B7	0.546 µg/mL	1.85 µg/mL	0.078 µg/mL	5.83 µg/mL	0.073 µg/mL	0.467 µg/mL	0.04 µg/mL	0.199 µg/mL	0.01 µg/mL	0.033 µg/mL	0.188 µg/mL	1.74 µg/mL
B8	0.411 µg/mL	1.44 µg/mL	0.099 µg/mL	3.43 µg/mL	0.093 µg/mL	0.394 µg/mL	0.062 µg/mL	0.299 µg/mL	0.011 µg/mL	0.039 µg/mL	0.216 µg/mL	3.8 µg/mL
B9	0.428 µg/mL	1.45 µg/mL	0.117 µg/mL	3.84 µg/mL	0.083 µg/mL	0.545 µg/mL	0.045 µg/mL	0.216 µg/mL	0.012 µg/mL	0.042 µg/mL	0.323 µg/mL	3.37 µg/mL
B10	0.658 µg/mL	2.28 µg/mL	0.147 µg/mL	3.99 µg/mL	0.13 µg/mL	0.57 µg/mL	0.079 µg/mL	0.397 µg/mL	0.016 µg/mL	0.055 µg/mL	0.457 µg/mL	8.87 µg/mL
B11	0.512 µg/mL	1.73 µg/mL	0.218 µg/mL	6.11 µg/mL	0.063 µg/mL	0.388 µg/mL	0.041 µg/mL	0.208 µg/mL	0.014 µg/mL	0.052 µg/mL	0.457 µg/mL	8.61 µg/mL
B12	0.527 µg/mL	1.42 µg/mL	0.039 µg/mL	2.75 µg/mL	0.071 µg/mL	0.412 µg/mL	0.047 µg/mL	0.168 µg/mL	0.007 µg/mL	0.027 µg/mL	0.162 µg/mL	2.53 µg/mL
B13	0.501 µg/mL	1.68 µg/mL	0.068 µg/mL	2.03 µg/mL	0.069 µg/mL	0.293 µg/mL	0.056 µg/mL	0.262 µg/mL	0.013 µg/mL	0.037 µg/mL	0.16 µg/mL	1.47 µg/mL
B14	0.496 µg/mL	1.69 µg/mL	0.082 µg/mL	3.12 µg/mL	0.109 µg/mL	0.352 µg/mL	0.061 µg/mL	0.258 µg/mL	0.016 µg/mL	0.045 µg/mL	0.213 µg/mL	2.1 µg/mL
